# T1: hORC1(413-511) (Homo sapiens, UniProt Q13415 413-511)
# T1 sequence: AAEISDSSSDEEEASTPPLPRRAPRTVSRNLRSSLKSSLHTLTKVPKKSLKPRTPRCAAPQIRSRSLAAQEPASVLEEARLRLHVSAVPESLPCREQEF
# B1: dsDNA (dsDNA)
# DNA 1: AAATTTAAAAAAAAAAATAATT
# DNA 2: AATTATTTTTTTTTTTAAATTT
# Target: T1, hORC1(413-511)
# Assay: fluorescence anisotropy; 100 mM KCl; FA: 20 mM HEPES-KOH pH 7.7, 100 mM KCl (or LiCl), 1 mM EDTA, 1 mM DTT, 25 C, 2 uM DNA, 1:1 fit; NMR: same buffer with 10% D2O, 10 uM DSS, 75 uM DNA, 25 C
# Conditions: protein: recombinant, tags: N-terminal GST (pGEX-6P-1) removed with PreScission protease
# [1] = label: 5'-FAM, G4, multiple folds, 1 strand
binder,measurement,setting,value
TGAGGGTGGGGAGGGTGGGGAA (structured_DNA) [wtPu22],Kd,[1],166 nM
B1,Kd,"label: 5'-FAM on strand 1, blunt",1910 nM
TGAGGGTGGGTAGGGTGGGTAA (structured_DNA) [mtPu22],Kd,"label: 5'-FAM (FA), label in NMR not clear, parallel G4, 1 strand",310 ± 39.2 nM
TAGGGAGGGTAGGGAGGGT (structured_DNA) [mtPu19],Kd,"label: 5'-FAM, parallel G4, 1 strand",446 ± 308 nM
TTGGGTTAGGGTTAGGGTTAGGGA (structured_DNA) [teloDNA],Kd,"label: 5'-FAM (FA), label in NMR not clear, (3+1) G4 in K+, 1 strand",227 ± 23.6 nM
TGGGGAGGGTGGGGAGGGT (structured_DNA) [wtPu19],Kd,[1],45.2 nM
